According to article PMC9284731:

Columns and labels:
[1] = test system: RBP10 fragment with only 10 residues C-terminal to the RRM (Trypanosoma brucei); experiment: EMSA; conditions: binding buffer for gel shifts not in material (only protein buffers: elution 50 mM NaH2PO4, 300 mM NaCl, 250 mM imidazole, pH 8.0); sometimes dialyzed to 10 mM …; scale: affinity relative to P1
[2] = test system: RBP10 fragment with no residues C-terminal to the RRM (Trypanosoma brucei); experiment: EMSA; conditions: binding buffer for gel shifts not in material (only protein buffers: elution 50 mM NaH2PO4, 300 mM NaCl, 250 mM imidazole, pH 8.0); sometimes dialyzed to 10 mM …; scale: affinity relative to P1

Substance | binding signal [1] | binding signal [2]
probe with two copies of UA(U)6 | < 0.1 | < 0.1
probe with two copies of UACUCUCU (mutant) | < 0.1 | < 0.1
